A word on the Kd: it is the free concentration of one partner at which half of the binding sites on the other are occupied at equilibrium, for simple one-to-one binding.

What all share (experiment): BLI
(In general: In BLI a coated tip is dipped into the sample, and binding shifts an interference pattern.)

Series [1] has as its system BG4 anti-G4 antibody. Particulars: Buffer R: 20 mM HEPES pH 7.4-7.5, 20 mM NaOAc, 140 mM KOAc, 3 mM Mg(OAc)2, 0.1% Tween20, SPR at 20 C, BLI temperature not ….
Series [2] relates to Gmab anti-G4 antibody fragment (human (Garvan-2 scFv library)). Particulars: Buffer R: 20 mM HEPES pH 7.4-7.5, 20 mM NaOAc, 140 mM KOAc, 3 mM Mg(OAc)2, 0.1% Tween20, SPR at 20 C, BLI temperature not ….
Series [3] concerns the target hen egg-white lysozyme (HEL) (Gallus gallus) (UniProt P00698). The conditions noted are these: Buffer R: 20 mM HEPES pH 7.5, 20 mM NaOAc, 140 mM KOAc, 3 mM Mg(OAc)2, 0.1% Tween20, BLI temperature not stated, low values mean tight binding.

hen egg-white lysozyme (HEL) (Gallus gallus), sequence (P00698 19-147): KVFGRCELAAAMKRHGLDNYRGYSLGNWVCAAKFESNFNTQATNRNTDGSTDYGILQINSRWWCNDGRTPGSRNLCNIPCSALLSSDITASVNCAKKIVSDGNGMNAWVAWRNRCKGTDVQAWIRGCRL

Take CGGGCGGGCGCGAGGGAGGGG [KIT2 G4]: the Kd in series [1] (ka 7.9e4 M-1s-1, kd 1.5e-4 s-1) was 1.9 nM; in series [2] (ka 7.5e4 M-1s-1, kd 2.7e-4 s-1), 3.6 nM.

Take “GTGCTGTTCGTTTAAATGTGTGTCGTCGTTCGCTATCC [LYS-S8-19-core14 (HNA)]”: the dissociation constant (Kd) in series [1] (all-HNA (1',5'-anhydrohexitol)) came to 5.3 nM; in series [2] (all-HNA (1',5'-anhydrohexitol)), 32.3 nM; in series [3] (all-HNA (1',5'-anhydrohexitol)) it was 48.8 nM.

“GTTCGTTTAAATATGTGTCGTCGTTCGCTATCC [core13 G13A]” came in with a Kd in series [3] (all-HNA) of 97.9 nM.

Regarding “GTTCGTTTAAATGTGTGTCGTCGTTCACTATCC [core13 G27A]”, in series [3] (all-HNA), the dissociation constant (Kd) worked out at 9.28 nM.

As for “GTTCGTTTAAATGTGTGTCGTCGTTCCCTATCC [core13 G27C]”, the Kd in series [3] (all-HNA) came to 116 nM.

Regarding “GTTCGTTTAAATGTGTGTCGTCGTTCGCTATCC [LYS-S8-19-core13 (HNA)]”, the Kd was determined as 118 nM in series [2] (ka 8.47e4, kd 1.00e-2, all-HNA) and 68.8 nM in series [3] (all-HNA).

The values above are taken from article PMC10450178.
